Results taken from article PMC12442443, “Identifying interactions between TDP‐43's N‐terminal and RNA‐binding domains” (Protein Science : A Publication of the Protein Society, 2024).

What was measured:
[1] = molecular target: TDP-43 1-102 (NTD) (Homo sapiens, UniProt Q13148); experiment: HTRF; ligand (UG)6 per legend; Methods heading names biotin (UG)4; NMR: 40 mM HEPES pH 6.5, 300 mM NaCl, 4 mM DTT, 25 C, 25 uM protein; EMSA: same buffer, 25 C incubation, 6.25% PAGE 0.5x TBE at 4 C; MST and HTRF buffers not in material; conditions: protein: recombinant; tags: His; single strand
[2] = molecular target: TDP-43 1-260 (NTD-RRM1-RRM2) (Homo sapiens, UniProt Q13148); experiment: MST; apparent Kd; NMR: 40 mM HEPES pH 6.5, 300 mM NaCl, 4 mM DTT, 25 C, 25 uM protein; EMSA: same buffer, 25 C incubation, 6.25% PAGE 0.5x TBE at 4 C; MST and HTRF buffers not in material; conditions: protein: recombinant; tags: His (MST: NT-647 labelled HisTDP-43; tag cleaved when needed); single strand
[3] = molecular target: TDP-43 102-260 (RRM1-RRM2) (Homo sapiens, UniProt Q13148); experiment: as above; conditions: protein: recombinant; tags: His (MST: NT-647 labelled HisTDP-43; tag cleaved when needed); single strand
TDP-43 102-260 (RRM1-RRM2), sequence (Q13148 102-260): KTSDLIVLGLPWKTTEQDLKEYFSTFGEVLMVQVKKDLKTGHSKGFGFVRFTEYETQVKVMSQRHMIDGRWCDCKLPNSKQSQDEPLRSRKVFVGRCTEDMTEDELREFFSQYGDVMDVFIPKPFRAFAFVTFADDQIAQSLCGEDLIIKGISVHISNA

TDP-43 1-260 (NTD-RRM1-RRM2), sequence (Q13148 1-260): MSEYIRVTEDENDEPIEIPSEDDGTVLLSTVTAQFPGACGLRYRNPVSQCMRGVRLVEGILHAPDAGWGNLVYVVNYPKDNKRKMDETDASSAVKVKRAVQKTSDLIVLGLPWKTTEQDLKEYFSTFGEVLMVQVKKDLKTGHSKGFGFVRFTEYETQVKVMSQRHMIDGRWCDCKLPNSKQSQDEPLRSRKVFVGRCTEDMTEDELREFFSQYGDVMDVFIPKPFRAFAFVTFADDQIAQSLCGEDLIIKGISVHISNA
TDP-43 1-102 (NTD), sequence (Q13148 1-102): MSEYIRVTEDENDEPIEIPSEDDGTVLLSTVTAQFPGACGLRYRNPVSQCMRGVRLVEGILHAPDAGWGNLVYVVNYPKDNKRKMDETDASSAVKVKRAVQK

Binder: UGUGUGUGUGUG (ssRNA) [(UG)6 HTRF ligand]
- binding result [1]: no binding

Binder: UGUGUGUGUGUG (ssRNA) [(UG)6]
- Kd [2]: 28.4 nM
- Kd [3]: 39.8 nM

Binder: UGUGUGUG (ssRNA) [(UG)4]
- Kd [2]: 246 nM
